Measured values: US20180207228A1, “PEPTIDE COMBINATIONS AND USES THEREOF FOR TREATING GRASS ALLERGY” (ALK-Abelló A/S, priority 2015, published 2018)
Where no end group is shown, it is not given here.

Tests used:
[1] = system: allergen specific T cells; assay: T cell proliferation assay (72 h) on donor derived T cell lines (TCL02/TCL03); type: cell-based, human; conditions: for Proliferation % donor coverage (TCL-02 DK1): T cell lines TCL-02 DK1, 30 donors, hit criteria SI>=2, CPM>=1000; for Proliferation strength (TCL-02 DK1): T cell lines TCL-02 DK1, strength of response (average relative magnitude)
Outline: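 Overlapping 20-mer and selected 15-mer grass allergen peptides were screened for proliferation using TCL02 (day 24) or TCL03 (day 34) lines. Lines came from grass-allergic donors' CD8-depleted PBMCs, primed with natural allergen mix and expanded with irradiated autologous or allogeneic APCs, PHA-P 0.5 μg/ml and rIL-2.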

[2] = system: release of IL-5 upon T cell activation; assay: Fluorospot assay, IL-5 release (DK1-TCL01, US1-TCL01); type: cell-based, human; conditions: head prints TCL-02 DK1; text: 25 TCL-01 DK1 lines
Outline: (§1)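 A peptide counted as a hit at ≥20 SFC/10^6 cells, stimulation index ≥2 over medium, and p and Poisson ≤0.05. Cells came from TCL01 lines, raised from allergic donors' CD8-depleted PBMCs over 14 days of natural-allergen stimulation with IL-2. They were exposed to 2 μg/ml peptide or peptide mix for 20 h at 37° C.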

[3] = system: release of IFN-γ upon T cell activation; assay: Fluorospot assay, IFN-γ release (DK1-TCL01, US1-TCL01); type: cell-based, human; conditions: head prints TCL-02 DK1; 17 TCL-01 DK1 lines
Outline: as §1

[4] = biological target: 25 HLA Class II alleles (purified class II MHC molecules); assay: competitive radiolabelled-peptide binding to purified HLA class II (25 alleles, binder if IC50 <300 nM); worldwide phenotypic coverage of the alleles found to bind

Row | Molecule | Measured binding coverage 25 alleles [4] [%] | also measured
1 | PMKSSWGAIWRIDPKKPLKG-OH [compound 108] | – | Proliferation % donor coverage (TCL-02 DK1) [1]: 33.33%; Proliferation strength (TCL-02 DK1) [1]: 4.10; IL-5-Fluorospotr % donor coverage (TCL-02 DK1) [2]: 4.00%; IFN-gamma % donor coverage (TCL-02 DK1) [3]: 0.00%
2 | AEVELRQHGSEEWEPLTKKG-OH [compound 43] | – | Proliferation % donor coverage (TCL-02 DK1) [1]: 3.33%; Proliferation strength (TCL-02 DK1) [1]: 0.70; IL-5-Fluorospotr % donor coverage (TCL-02 DK1) [2]: 4.00%; IFN-gamma % donor coverage (TCL-02 DK1) [3]: 0.00%
3 | YASGKVWGQKYFKGNFERLA-OH [compound 58] | – | Proliferation % donor coverage (TCL-02 DK1) [1]: 20.00%; Proliferation strength (TCL-02 DK1) [1]: 2.40; IL-5-Fluorospotr % donor coverage (TCL-02 DK1) [2]: 4.00%; IFN-gamma % donor coverage (TCL-02 DK1) [3]: 0.00%
4 | ELTLQFRRVKSKYPSGTKIT-OH [compound 102] | – | Proliferation % donor coverage (TCL-02 DK1) [1]: 33.33%; Proliferation strength (TCL-02 DK1) [1]: 4.70; IL-5-Fluorospotr % donor coverage (TCL-02 DK1) [2]: 4.00%; IFN-gamma % donor coverage (TCL-02 DK1) [3]: 8.00%
5 | KDKWIELKESWGAIWRIDTP [peptide 210 (Phl p 1, 183)] | 92 | –
6 | PEVKYAVFEAALTKAIT [peptide 140, Lol p 5a (Rye09B)] | 99 | –
7 | EWVAMTKGEGGVWTFDSEEP [peptide 214 (Phl p 2, 40)] | 81 | –
8 | HGSEEWEPLTKKGNVWEVKS [peptide 218 (Phl p 3, 38)] | 39 | –
9 | WLDAKSTWYGKPTGAGPKDN [peptide 201 (Phl p 1, 18)] | 47 | –
10 | GSDPKKLVLNIKYTRPGDSL [peptide 217 (Phl p 3, 11)] | 98 | –
11 | GDEQKLRSAGELELQFRRVK [peptide 206 (Phl p 1, 119)] | 70 | –
12 | WGAIWRIDTPDKLTGPFTVR [peptide 211 (Phl p 1, 193)] | 90 | –
13 | VRYTTEGGTKTEAEDVIPEG [peptide 212 (Phl p 1, 211)] | 40 | –
14 | FIPMKSSWGA [peptide 135, Cyn d 1 (Ber02)] | 19 | –
15 | KSSWGAIWRIDPKKPLK [peptide 136, Cyn d 1 (Ber02C)] | 76 | –
16 | LKKAVTAMSEAEK [peptide 139, Lol p 5b (Bio04A)] | 62 | –
17 | SGKAFGAMAKKGQED [peptide 134, Cyn d 1 (Ber01)] | 47 | –
18 | LVKYVNGDGDVVAVDIKEKG [peptide 209 (Phl p 1, 163)] | 85 | –
19 | KYDAYVATLTEALR [peptide 137, Lol p 5b (Bio02A)] | 98 | –
20 | EPLQGPFNFRFLTEKGMKNV [peptide 216 (Phl p 2, 58)] | 92 | –
21 | TKKGNVWEVKSSKPLVGPFN [peptide 219 (Phl p 3, 47)] | 91 | –
22 | KKPEVKYAVFEAALTKAIT (not fully specified) [peptide 143, Lol p 5a (Rye09B2)] | 99 | –
23 | EIKSTKPEASSGEPVVVHIT [peptide 203 (Phl p 1, 74)] | 71 | –
24 | TEAEDVIPEGWKADTSYESK [peptide 213 (Phl p 1, 221)] | 58 | –
25 | AGELELQFRRVKSKYPEGTK [peptide 207 (Phl p 1, 127)] | 71 | –
26 | GRGSGSSFEIKSTKPEASSG [peptide 202 (Phl p 1, 66)] | 84 | –
27 | KFIPTLVAAVKQAYAAKQ [peptide 138, Lol p 5b (Bio03A)] | 99 | –
28 | KPEVKYAVFEAALTKAIT (not fully specified) [peptide 142, Lol p 5a (Rye09B1)] | 100 | –
29 | YHFDLSGHAFGAMAKKGDEQ [peptide 205 (Phl p 1, 103)] | 88 | –
30 | TDDNEEPIAPYHFDLSGHAF [peptide 204 (Phl p 1, 93)] | 78 | –

The next lines start with results.

Row | Measured binding coverage 25 alleles [4] [%] | Molecule | also measured
31 | 96 | KSSKPLVGPFNFRFMSKGGM [peptide 220 (Phl p 3, 56)] | –
32 | 92 | GFKAALAAAAGVPPADKYRT [peptide 230 (Phl p 5, 31)] | –
33 | 99 | EAKYDAYVATLSEALRIIAG [peptide 233 (Phl p 5, 104)] | –
34 | 98 | EQKLIEKINAGFKAALAAAA [peptide 229 (Phl p 5, 21)] | –
35 | 99 | DKYRTFVATFGAASNKAFAE [peptide 231 (Phl p 5, 46)] | –
36 | 99 | YIITPTNVSHIQSAVVSGRR [peptide 223 (Phl p 4, 55)] | –
37 | 99 | PANDKFTVFEAAFNNAIKAS [peptide 237 (Phl p 5, 166)] | –
38 | 57 | SMGDDHFWAVRGGGGESFGI [peptide 226 (Phl p 4, 195)] | –
39 | 99 | STGGAYESYKFIPALEAAVK [peptide 238 (Phl p 5, 185)] | –
40 | 69 | AGYTPAAPAGAEPAGKATTE [peptide 228 (Phl p 5, 1)] | –
41 | 100 | KEDFLGSLVKEIPPRLLYAK [peptide 222 (Phl p 4, 8)] | –
42 | 93 | TSKLDAAYKLAYKTAEGATP [peptide 232 (Phl p 5, 84)] | –
43 | 98 | GFGMLLRKYGIAAENVIDVK [peptide 225 (Phl p 4, 163)] | –
44 | 94 | VATLSEALRIIAGTLEVHAV [peptide 234 (Phl p 5, 111)] | –
45 | 99 | FAVVDLNKMRAVWVDGKART [peptide 224 (Phl p 4, 101)] | –
46 | 97 | TPFPHRKGVLFNIQYVNYWF [peptide 227 (Phl p 4, 386)] | –
